Legend:
Type in all cases: biochemical
[1] = pH-indicator (4-nitrophenol/BES) microplate screening of commercial hydrolases, initial rates of hydrolysis; conditions: for Activity (R): (R)-solketal butyrate 1.0 mM; for Activity (R) / Activity (S) / Activity (±): pH 7.2, 7.1% acetonitrile, 25° C.; for Activity (S): (S)-solketal butyrate 1.0 mM; for Activity (±): (±)-solketal butyrate 1.0 mM, specific activity; for Estimated E: without Triton X-100
Experimental: The hydrolases were dissolved in BES buffer (5.0 mM, pH 7.2) at the concentrations listed in Table 1 (0.5-40 mg solid/mL solution). […] CaCl2 (2 mM) was added to the protease solutions since some proteases require calcium ions to maintain their structure. For hydrolase samples with low protein content, saturated solutions (up to 40 mg solid/ml) were utilized for hydrolase samples and with high protein content were utlized, lower concentrations (typically, 1 mg solid/ml) were utilized. Each solution was centrifuged to remove insoluble material (5 min, 2,000 rpm) and titrated to a final pH of 7.2. The protein concentrations were determined using a dye-binding assay from Bio-Rad (Mississauga, ON) with bovine serum albumin (BSA) as the standard. Solutions were stored in a 96-well assay block ‘mother plate’ equipped with aluminum sealing tape (2 mL maximum volume in each well, Corning Costar, Acton, Mass.) at −20° C.
Hydrolase solutions (5 μL/well) were transferred from the mother plate to a 96-well microtiter plate using an 8-channel pipette. Assay solution (100 μL/well) was quickly added to each well using a 1,200 μL 8-channel pipette. The final concentrations in each well were 1.0 mM substrate, 4.65 mM BES, 0.434 mM 4-nitrophenol, 7.1% acetonitrile. The plate was quickly placed in the microplate reader, shaken for 10 s to ensure complete mixing and the decrease in absorbance at 404 nm was monitored at 25° C. as often as permitted by the microplate software, typically every 11 seconds. […] Data were collected for one hour to ensure slow reactions and reactions with a lag time were detected. Each hydrolysis was carried out in quadruplicate and was averaged. […] For this reason. the first 10 s of data was typically deleted from the calculation of the initial rate. Activities were calculated from slopes in the linear portion of the curve usually over the first two hundred seconds. […] To calculate specific activity (μmol/min/mg protein), the total amount of protein in each well was taken into account.
The assay was used to screen for enantioselective hydrolases in 96-well microplates. Using pure enantiomers, the initial rates of hydrolysis of each enantiomer of solketal butyrate was measured separately. […] Note that the ratio of separately measured initial rates of hydrolysis of the enantiomers is not the true enantioselectivity, so this screening provides only an estimated enantioselectivity. The true enantioselectivity is the ratio of the specificity constants (kcat/KM) for each enantiomer. By measuring initial rates of the enantiomers separately, competitive binding between the two enantiomers was eliminated. At saturating substrate conditions, the relative initial rates equal the relative kcat values; at partially saturating conditions, the initial rates also depend on the KM values. Thus, the ratio of separately measured initial rates ignores some or all of the effect of KM on enantioselectivity. In spite of this inaccuracy, the relative initial rate provides an estimated enantioselectivity.

[2] = Endpoint method: small-scale enzyme-catalyzed hydrolysis, ee by HPLC, true E; conditions: substrate 1
[3] = Quick E of chromogenic ester with resorufin tetradecanoate reference; conditions: substrate 1
Experimental: To reintroduce competition, resorufin tetradecanoate was added as a reference compound, FIG. 7. The initial rates of hydrolysis of (S)-1 were monitored at 404 nm and the reference compound at 572 nm in the same solution. After taking into account the initial concentrations of both substrates, the ratio of these rates yielded the selectivity of the hydrolase for (S)-1 over the reference compound, Eq 8.
A second experiment using (R)-1 and the reference compound yielded the selectivity of (R)-1 over the reference compound. The ratio of these two selectivities yields the enantiomeric ratio, Eq. 9.
Substrate solutions were the same as for separately measured initial rate measurements, but a solution of resorufin tetradecanaote 6 (0.5 mL of a 1.59 mM solution in acetonitrile) was added slowly to the vortexing solutions of pure enantiomers. It was necessary to use a 2-fold increase in the concentration of Triton X-100 to solubilize resorufin tetradecanoate. The emulsions remained clear for at least 2 hours. To measure the initial rates of hydrolysis, lipase solutions from Table 4 (100 μL) was added to the substrate emulsion (900 μL) in a cuvette at 25° C. and the linear increase in absorbances at 404 nm and 574 nm were monitored for 15 s. Rates are calculated in μmol/min/mg protein after taking into account the amount of protein in each cuvette. […] No spontaneous chemical hydrolysis was detected at 404 nm or 574 nm.

[4] = Separately measured initial rates of chromogenic esters (404 nm), estimated E; conditions: substrate 1
Experimental: The initial rates of hydrolysis of 4-nitrophenyl esters of pure enantiomers were determined to quickly estimate the enantioselectivity of several lipases towards three common chiral carboxylic acids: 2-phenylpropanoic acid, p-nitro phenyl ester (or, 4-nitrophenyl 2-phenylpropanoate), 1; 2-(4-isobutylphenyl)propanoic acid (commercially available as Ibuprofen), 2; and phenylalanine, 3, FIG. 5. The rates of hydrolysis of 4-nitrophenyl esters were conveniently determined spectrophotometrically by monitoring the rate of release of 4-nitrophenoxide anion at 404 nm, FIG. 6. The ratio of separately measured initial rates of hydrolysis estimated the enantioselectivity. The quick E of phenylalanine, 3, was not measured because of its instability in aqueous solution.
Separately measured initial rates of chromogenic esters. 4-nitrophenyl esters of 2- phenylpropanoic acid, 1, and 2-(4-isobutylphenyl)propanoic acid, 2, were emulsified in aqueous solutions according to Vorderwuibecke. A solution of (R) or (S)-4-nitrophenyl-esster (500 μL of a 7.8 mM solution in acteonitrile) was added dropwise to Tris buffer (9000 μL, 50 mM, pH 7.5) containing 0.45 w/v % Triton X-100 (Pierce Surfact-Amps) and vortexed until clear. This emulsion remained clear for at least 3 hours. To measure the initial rates of hydrolysis, lipase solutions from Table 3 (100 μL) were added to the substrate emulsion (900 μL) in a cuvette at 25° C. and the linear increase in absorbance at 404 nm was monitored for 15 s. The final concentrations in the cuvettes were 0.369 mM substrate, 0.39% Triton X-100, 45 mM Tris buffer, 4.76% acetonitrile. No spontaneous chemical hydrolysis was detected. Solutions of 4-nitrophenyl esters of phenylalanine, 3, in acetonitrile (5 IL of a 50 mM solution in acetonitrile) were added to HEPES buffer (1000 μL, 10 mM , pH 7.5). To measure the rates of hydrolysis, 5 μL of ANL solution was added and the change in absorbance monitored as above.

[5] = pH-indicator screening under interfacial activation conditions (Triton X-100); conditions: 2.8 mM Triton X-100 in the wells
Experimental: The procedure was the same as above except that the BES buffer (5 mM, pH 7.2) contained Triton-X 100 (8.45 mM). Final concentration of Triton X-100 in the wells was 2.8 mM.
The reaction conditions in the assay were altered in an attempt to increase the estimated enantioselectivity toward solketal butyrate. For example, the activity of hydrolases, especially lipases, often increases in the presence of an interface. It was reasoned that this interfacial activation may also change the enantioselectivity. The hydrolase library was screened with Triton X-100 (a non-ionic detergent) added to create micelles. The reaction rates increased for eight hydrolases (three lipases and five esterases), decreased for thirty-two hydrolases, and stayed constant for twelve hydrolases. Unfortunately, the estimated enantioselectivities remained unchanged or decreased slightly for the best hydrolases: AOP (decrease from 4.9 to 4.2), ROL (decrease from 11.3 to 9.6), HLE (decrease from 12.2 to 7.6), BSP (decrease from 7.3 to 5.4). […] For example, subtilisin Carlsberg increased from 2.6 to 2.8, esterase from Bacillus stearothermophilus increased from 1.7 to 2.4 and Aspergillus oryzae lipase decreased from 4.95 to 1.8.

[6] = ratio of separately measured initial rates of the enantiomers
[7] = 0.37 mM substrate, 0.38% Triton X-100, 45.2 mM Tris Buffer, 4.76% acetonitrile

| Molecule | Activity (R) [1] [μmol/min/mg protein] | Activity (S) [1] [μmol/min/mg protein] | Activity (±) [1] [μmol/min/mg protein] | Estimated E [1, 6] | C [2] | eep [2] | Endpoint E ([2]; Tris buffer pH 8.0, room temperature) | (R)-enantiomer + ref, rate 404 nm ([3]; 0.351 mM (R)-ester + 0.071 mM resorufin tetradecanoate, Tris pH 8, 25°) [μmol/min/mg protein] | (S)-enantiomer + ref, rate 404 nm ([3]; 0.351 mM (S)-ester + 0.071 mM resorufin tetradecanoate, Tris pH 8, 25°) [μmol/min/mg protein] | Quick E ([3]; error = standard deviation for 3 measurements) | (R)-enantiomer + ref, rate 574 nm ([3]; reference hydrolysis in presence of (R)-ester) [μmol/min/mg protein] | (S)-enantiomer + ref, rate 574 nm ([3]; reference hydrolysis in presence of (S)-ester) [μmol/min/mg protein] | Initial Rate (R) [4, 7] [μmol/min/mg protein] | Initial Rate (S) [4, 7] [μmol/min/mg protein] | Estimated E ([4]; ratio of separately measured initial rates) | Estimated E [1] | Estimated E ([1]; ratio of separately measured initial rates of the enantiomers, listed as subtilisin Carlsberg) | estimated enantioselectivity with Triton X-100 [5] |
| --- | --- | --- | --- | --- | --- | --- | --- | --- | --- | --- | --- | --- | --- | --- | --- | --- | --- | --- |
| Proteinase K: commercial protease (protein, UniProt P06873 106-384, looked up) Proteinase K: AAQTNAPWGLARISSTSPGTSTYYYDESAGQGSCVYVIDTGIEASHPEFEGRAQMVKTYYYSSRDGNGHGTHCAGTVGSRTYGVAKKTQLFGVKVLDDNGSGQYSTIIAGMDFVASDKNNRNCPKGVVASLSLGGGYSSSVNSAAARLQSSGVMVAVAAGNNNADARNYSPASEPSVCTVGASDRYDRRSSFSNYGSVLDIFGPGTSILSTWIGGSTRSISGTSMATPHVAGLAAYLMTLGKTTAASACRYIADTANKGDLSNIPFGTVNLLAYNNYQA | 3.08 | 2.29 | 2.14 | 1.24 |  |  |  |  |  |  |  |  |  |  |  |  |  |  |
| Porcine pancreas: commercial lipase from porcine pancreas (protein, UniProt P00591 1-450, looked up) Pancreatic triacylglycerol …: SEVCFPRLGCFSDDAPWAGIVQRPLKILPWSPKDVDTRFLLYTNQNQNNYQELVADPSTITNSNFRMDRKTRFIIHGFIDKGEEDWLSNICKNLFKVESVNCICVDWKGGSRTGYTQASQNIRIVGAEVAYFVEVLKSSLGYSPSNVHVIGHSLGSHAAGEAGRRTNGTIERITGLDPAEPCFQGTPELVRLDPSDAKFVDVIHTDAAPIIPNLGFGMSQTVGHLDFFPNGGKQMPGCQKNILSQIVDIDGIWEGTRDFVACNHLRSYKYYADSILNPDGFAGFPCDSYNVFTANKCFPCPSEGCPQMGHYADRFPGKTNGVSQVFYLNTGDASNFARWRYKVSVTLSGKKVTGHILVSLFGNEGNSRQYEIYKGTLQPDNTHSDEFDSDVEVGDLQKVKFIWYNNNVINPTLPRVGASKITVERNDGKVYDFCSQETVREEVLLTLNPC |  |  |  |  | 4.0 | 2.0 | 1.1 ± 0.1 | 0.000659 | 0.00105 | 1.4 ± 0.2 | 0.00437 | 0.000495 | 0.00403 | 0.0059 | 1.4 ± 0.1 |  |  |  |
| Themsolysin, Type X: commercial protease (protein, UniProt P00800 233-548, looked up) Thermolysin: ITGTSTVGVGRGVLGDQKNINTTYSTYYYLQDNTRGNGIFTYDAKYRTTLPGSLWADADNQFFASYDAPAVDAHYYAGVTYDYYKNVHNRLSYDGNNAAIRSSVHYSQGYNNAFWNGSQMVYGDGDGQTFIPLSGGIDVVAHELTHAVTDYTAGLIYQNESGAINEAISDIFGTLVEFYANKNPDWEIGEDVYTPGISGDSLRSMSDPAKYGDPDHYSKRYTGTQDNGGVHINSGIINKAAYLISQGGTHYGVSVVGIGRDKLGKIFYRALTQYLTPTSNFSQLRAAAVQSATDLYGSTSQEVASVKQAFDAVGVK | 0.255 | 0.738 | 0.095 | 2.89 |  |  |  |  |  |  |  |  |  |  |  | 5 |  |  |
| Subtilisin Carlsberg: commercial protease (protein, UniProt P00780 106-379, looked up) Subtilisin Carlsberg: AQTVPYGIPLIKADKVQAQGFKGANVKVAVLDTGIQASHPDLNVVGGASFVAGEAYNTDGNGHGTHVAGTVAALDNTTGVLGVAPSVSLYAVKVLNSSGSGSYSGIVSGIEWATTNGMDVINMSLGGASGSTAMKQAVDNAYAKGVVVVAAAGNSGSSGNTNTIGYPAKYDSVIAVGAVDSNSNRASFSSVGAELEVMAPGAGVYSTYPTNTYATLNGTSMASPHVAGAAALILSKHPNLSASQVRNRLSSTATYLGSSFYYGKGLINVEAAAQ | 0.213 | 0.082 | 0.083 | 2.60 |  |  |  |  |  |  |  |  |  |  |  |  | 2.6 | 2.8 |
